Two substances from patent US20060115482A1, “Modifications of histone proteins as indicators of cell proliferation and differentiation” (The Regents of the University of California, priority 2004, published 2006) can be followed below.

This data set has as its system H2B-S33. The experiment in a line: In vitro kinase assay (γ32P-ATP, SDS-PAGE, autoradiography, scintillation counting). It counts as biochemical, Drosophila. The settings on record: for Turnover values for phosphorylation of H2B-S33: 3 μg enzyme. On the procedure:
Kinase reactions were programmed with 1 μg RAP74, 1 μg recombinant histone, 2 μg polynucleosomes, 2 μg histone octamers, or 300 ng histone peptide, and contained 400 ng endogenous TFIID or 250 ng recombinant TAF1 derivatives and 0.25 μCi γ^32P-ATP. Reactions were performed in 20 μl kinase buffer (25 mM Hepes (pH 7.6), 10% glycerol, and 400 mM NaCl) for 25 min at 25° C. Reaction products were analyzed by SDS-PAGE using 8%—(for recombinant proteins), 15%—(for histones), or 18% (for peptides) gels. After electrophoresis, gels were dried and exposed to X-ray film.
To quantify kinase reactions, reactions products were separated by SDS-PAGE and detected by coomassie blue staining. Radiolabeled H2B was detected by autoradiography, excised from the gel, and analyzed by scintillation counting.
To measure the kinase activity of TFIID, TAF1, CTK, and mutant CTK-derivatives, reaction products of in vitro kinase assays were separated by SDS-PAGE and stained with coomassie blue. Radiolabeled H2B, H2BT and controls were excised from the gel and incorporation of radioactivity was determined by scintillation counting. Turnover values for phosphorylation of H2B-S33 were determined by measuring incorporation of radiolabeled phosphate groups into H2B in the presence of 3 μg TAF1, TFIID, or CTK-derivatives and 3 μg H2B or 12 μg nucleosomes. The turnover values were: TFIID (nucleosomes: 3.3/sec; H2B: 2.6/sec); TAF1: (nucleosomes: 2.5/sec; H2B: 2.5/sec); CTK: (nucleosomes: 2.6/sec; H2B: 4.4/sec).

On to “TAF1: subunit of TFIID that has kinase activity; recombinant Flag-tagged Drosophila protein”, for which the “Turnover values for phosphorylation of H2B-S33” value runs as follows: (substrate 3 μg H2B) 2.5 s⁻¹; (substrate 12 μg nucleosomes) 2.5 s⁻¹.

On to “TAF1ΔCTK: TAF1 truncated by stop codon behind amino acid 1728, deleting the CTK downstream of the DBD”, for which, where the note is “autoradiography”, the “H2B phosphorylation in vitro (qualitative)” value is recorded as “does not phosphorylate H2B in vitro”. The “kinase activity, % of the activity determined for TFIID, TAF1 and CTK” value (radiolabeled H2B, scintillation counting) is “less than 0.1%”.
